{"source": "paper PMC5766984", "about": "“Correlation of structure, function and protein dynamics in GH7 cellobiohydrolases from Trichoderma atroviride, T. reesei and T. harzianum” (Biotechnology for Biofuels, 2018)", "molecules": {"B1": {"name": "TreCel7A (Trichoderma reesei) (protein)", "chain": "QSACTLQSETHPPLTWQKCSSGGTCTQQTGSVVIDANWRWTHATNSSTNCYDGNTWSSTLCPDNETCAKNCCLDGAAYASTYGVTTSGNSLSIGFVTQSAQKNVGARLYLMASDTTYQEFTLLGNEFSFDVDVSQLPCGLNGALYFVSMDADGGVSKYPTNTAGAKYGTGYCDSQCPRDLKFINGQANVEGWEPSSNNANTGIGGHGSCCSEMDIWEANSISEALTPHPCTTVGQEICEGDGCGGTYSDNRYGGTCDPDGCDWNPYRLGNTSFYGPGSSFTLDTTKKLTVVTQFETSGAINRYYVQNGVTFQQPNAELGSYSGNELNDDYCTAEEAEFGGSSFSDKGGLTQFKKATSGGMVLVMSLWDDYYANMLWLDSTYPTNETSSTPGAVRGSCSTSSGVPAQVESQSPNAKVTFSNIKFGPIGSTGNPSG"}, "B2": {"name": "TatCel7A (Trichoderma atroviride IMI 206040) (protein)", "chain": "QQVCTTQAETHPALSWSKCTSGGSCTTQAGKVVLDANWRWTHAYPSGNNCYNGNTWDATLCPDDATCAKNCCLEGADYSGTYGVTTSGNQLTIDFVTQSANKNVGARLYLMASDTAYEEFTLLNNEFSFDVDVSALPCGLNGALYFVSMDADGGASKYPTNLAGAKYGTGYCDSQCPRDLKFISGQANVEGWQPSSNNANTGIGGHGSCCSEMDIWEANSISQALTPHPCETVGQVTCSGDDCGGTYSNNRYGGTCDPDGCDWNPYRLGNHTFYGPGSGFTVDTTKKITVVTQFSSTGINRYYVQNGVKFVQPNASGLSGYTGNTINSAYCSAEQTAFGGTSFTDKGGLTQMNKALSGGMVLVLSLWDDYAANMLWLDSTYPTNDTASTPGAARGTCSTSSGVPATVEQQSPNSKVVFSNIKFGPIGSTG"}, "B3": {"name": "ThaCel7A (Trichoderma harzianum) (protein)", "chain": "QQVCTQQAETHPPLTWQKCTASGCTPQQGSVVLDANWRWTHDTKSTTNCYDGNTWSSTLCPDDATCAKNCCLDGANYSGTYGVTTSGDALTLQFVTASNVGSRLYLMANDSTYQEFTLSGNEFSFDVDVSQLPCGLNGALYFVSMDADGGQSKYPGNAAGAKYGTGYCDSQCPRDLKFINGQANVEGWEPSSNNANTGVGGHGSCCSEMDIWEANSISEALTPHPCETVGQTMCSGDSCGGTYSNDRYGGTCDPDGCDWNPYRLGNTSFYGPGSSFALDTTKKLTVVTQFATDGSISRYYVQNGVKFQQPNAQVGSYSGNTINTDYCAAEQTAFGGTSFTDKGGLAQINKAFQGGMVLVMSLWDDYAVNMLWLDSTYPTNATASTPGAKRGSCSTSSGVPAQVEAQSPNSKVIYSNIRFGPIGSTG"}}, "key": {"TatCel7A": {"molecular_target": "T1, TatCel7A (Trichoderma atroviride, UniProt G9NTY1)", "T1 construct": "gene TRIATDRAFT_88458", "assay": "competitive (product) inhibition of pNP-Lac hydrolysis, pH […] °C", "assay_type": "biochemical"}, "ThaCel7A": {"molecular_target": "T2, ThaCel7A (Trichoderma harzianum, UniProt Q9P8P3)", "T2 construct": "gene cbh1", "T2 sequence (Q9P8P3 18-443)": "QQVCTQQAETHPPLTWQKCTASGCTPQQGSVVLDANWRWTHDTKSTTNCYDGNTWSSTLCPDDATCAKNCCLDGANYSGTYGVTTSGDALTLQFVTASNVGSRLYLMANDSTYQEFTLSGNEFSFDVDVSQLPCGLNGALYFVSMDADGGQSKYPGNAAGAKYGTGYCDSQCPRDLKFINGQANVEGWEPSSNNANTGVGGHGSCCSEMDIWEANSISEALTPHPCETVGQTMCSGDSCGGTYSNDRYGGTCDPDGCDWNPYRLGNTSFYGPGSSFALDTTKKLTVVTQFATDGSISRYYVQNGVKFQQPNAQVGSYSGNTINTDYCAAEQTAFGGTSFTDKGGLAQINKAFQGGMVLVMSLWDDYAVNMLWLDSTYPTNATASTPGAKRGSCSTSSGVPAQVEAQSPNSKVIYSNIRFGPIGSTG", "assay": "competitive (product) inhibition of pNP-Lac hydrolysis, pH […] °C", "assay_type": "biochemical"}, "TreCel7A": {"molecular_target": "T3, TreCel7A (Trichoderma reesei, UniProt P62694)", "T3 construct": "gene cbh1", "T3 sequence (P62694 18-451)": "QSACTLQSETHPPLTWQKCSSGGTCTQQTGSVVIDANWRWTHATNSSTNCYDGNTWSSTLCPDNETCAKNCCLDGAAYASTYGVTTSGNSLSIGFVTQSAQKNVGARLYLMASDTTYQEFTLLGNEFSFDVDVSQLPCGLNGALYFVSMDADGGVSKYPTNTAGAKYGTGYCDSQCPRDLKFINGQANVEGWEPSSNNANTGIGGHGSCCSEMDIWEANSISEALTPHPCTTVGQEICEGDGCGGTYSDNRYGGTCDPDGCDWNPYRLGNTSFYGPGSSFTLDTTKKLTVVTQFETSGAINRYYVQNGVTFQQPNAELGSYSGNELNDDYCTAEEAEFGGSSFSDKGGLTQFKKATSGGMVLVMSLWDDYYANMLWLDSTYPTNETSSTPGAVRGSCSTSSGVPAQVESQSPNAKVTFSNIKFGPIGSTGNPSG", "assay": "competitive (product) inhibition of pNP-Lac hydrolysis, pH […] °C", "assay_type": "biochemical"}, "purified protein [1]": {"substrate": "[H][C@@]1(O[C@H]2[C@H](O)[C@@H](O)[C@H](Oc3ccc([N+](=O)[O-])cc3)O[C@@H]2CO)O[C@H](CO)[C@H](O)[C@H](O)[C@H]1O", "assay": "purified protein", "assay_type": "biochemical, Trichoderma reesei", "conditions": "subsites (−[…]/−[…]/+[…]) where pNP-Lac should bind for hydrolysis; pH 4.5; 30.0 °C"}, "purified protein [2]": {"substrate": "[H][C@@]1(O[C@H]2[C@H](O)[C@@H](O)[C@H](Oc3ccc([N+](=O)[O-])cc3)O[C@@H]2CO)O[C@H](CO)[C@H](O)[C@H](O)[C@H]1O", "assay": "purified protein", "assay_type": "biochemical, Trichoderma atroviride", "conditions": "subsites (−[…]/−[…]/+[…]) where pNP-Lac should bind for hydrolysis; pH 4.5; 30.0 °C"}, "purified protein [3]": {"substrate": "[H][C@@]1(O[C@H]2[C@H](O)[C@@H](O)[C@H](Oc3ccc([N+](=O)[O-])cc3)O[C@@H]2CO)O[C@H](CO)[C@H](O)[C@H](O)[C@H]1O", "assay": "purified protein", "assay_type": "biochemical, Trichoderma harzianum", "conditions": "subsites (−[…]/−[…]/+[…]) where pNP-Lac should bind for hydrolysis; pH 4.5; 30.0 °C"}}, "data": [{"molecule": "OC[C@H]1O[C@@H](O[C@H]2[C@H](O)[C@@H](O)C(O)O[C@@H]2CO)[C@H](O)[C@@H](O)[C@@H]1O", "note": "(stereo partly drawn) [cellobiose]", "values": [{"measurement": "Ki", "setting": "TatCel7A", "result": 72, "unit": "µM"}, {"measurement": "Ki", "setting": "ThaCel7A", "result": 49, "unit": "µM"}, {"measurement": "Ki", "setting": "TreCel7A", "result": 24, "unit": "µM"}]}, {"molecule": "B1", "values": [{"measurement": "Km", "setting": "purified protein [1]", "result": 720, "unit": "µM"}, {"measurement": "kcat", "setting": "purified protein [1]", "result": 0.057, "unit": "s⁻¹"}, {"measurement": "kcat/Km", "setting": "purified protein [1]", "result": 79, "unit": "M⁻¹ s⁻¹"}]}, {"molecule": "B2", "values": [{"measurement": "Km", "setting": "purified protein [2]", "result": 1000, "unit": "µM"}, {"measurement": "kcat", "setting": "purified protein [2]", "result": 0.019, "unit": "s⁻¹"}, {"measurement": "kcat/Km", "setting": "purified protein [2]", "result": 19, "unit": "M⁻¹ s⁻¹"}]}, {"molecule": "B3", "values": [{"measurement": "Km", "setting": "purified protein [3]", "result": 900, "unit": "µM"}, {"measurement": "kcat", "setting": "purified protein [3]", "result": 0.067, "unit": "s⁻¹"}, {"measurement": "kcat/Km", "setting": "purified protein [3]", "result": 75, "unit": "M⁻¹ s⁻¹"}]}]}
